Data as given in paper PMC11551737, “Structural and functional insights into the interaction between the bacteriophage T4 DNA processing proteins gp32 and Dda” (Nucleic Acids Research, 2024).
Entries after “also recorded” stand apart in the source; their conditions may differ.

Columns and labels:
Dda-K38A/dT20 = target: T1, Dda-K38A/dT20 (Enterobacteria phage T4, UniProt P32270, K38A); type: binding, bacteriophage T4; settings: SPR analysis 1, peptides up to 100 μM, 25°C
T1 construct: made in house

[1] = target: T2, gp32 C-terminal peptide 248-270;Dda-K38A (bacteriophage T4;bacteriophage T4, UniProt P03695;P32270 248-270;1-439, |K38A); assay: crystal structure; 3.53 A; peptide contacts Dda; EMSA: 25 mM HEPES pH 7.5, 5 mM MgCl2, 0.1 mM EDTA, 2 mM 2-mercaptoethanol, 1 mg/ml BSA, 5% glycerol, 10 or 150 mM NaCl, room temperature (gel 4 C); gel filtration: 20 mM Tris-HCl pH 7.0, 200 mM NaCl (50 mM for crystallization), 0.5 mM EDTA, 5 mM 2-mercaptoethanol; settings: tags: ;6xHis (stated for SPR); copies: 1;1; single strand
T2 sequence 1: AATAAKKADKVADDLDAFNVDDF
T2 sequence 2: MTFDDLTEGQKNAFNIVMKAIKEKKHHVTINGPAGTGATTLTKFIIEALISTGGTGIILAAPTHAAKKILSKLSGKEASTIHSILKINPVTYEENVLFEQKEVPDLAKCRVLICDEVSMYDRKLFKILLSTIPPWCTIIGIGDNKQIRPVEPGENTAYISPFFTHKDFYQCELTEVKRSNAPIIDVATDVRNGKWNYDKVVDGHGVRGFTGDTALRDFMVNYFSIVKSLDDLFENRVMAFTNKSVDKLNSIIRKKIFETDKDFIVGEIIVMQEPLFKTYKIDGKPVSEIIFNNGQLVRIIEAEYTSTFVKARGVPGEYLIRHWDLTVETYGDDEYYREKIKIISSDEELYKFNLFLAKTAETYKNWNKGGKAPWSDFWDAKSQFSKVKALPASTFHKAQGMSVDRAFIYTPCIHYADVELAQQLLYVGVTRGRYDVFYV

gp32 His-tagged;Dda-K38A [2] = target: T3, gp32 His-tagged;Dda-K38A (bacteriophage T4;bacteriophage T4, UniProt P03695;P32270 1-301;1-439, |K38A); assay: gel filtration; complex stably formed; EMSA: 25 mM HEPES pH 7.5, 5 mM MgCl2, 0.1 mM EDTA, 2 mM 2-mercaptoethanol, 1 mg/ml BSA, 5% glycerol, 10 or 150 mM NaCl, room temperature (gel 4 C); gel filtration: 20 mM Tris-HCl pH 7.0, 200 mM NaCl (50 mM for crystallization), 0.5 mM EDTA, 5 mM 2-mercaptoethanol; settings: protein: recombinant;recombinant; tags: N-terminal 6xHis;6xHis (stated for SPR); copies: 1;1; single strand
T3 sequence 1: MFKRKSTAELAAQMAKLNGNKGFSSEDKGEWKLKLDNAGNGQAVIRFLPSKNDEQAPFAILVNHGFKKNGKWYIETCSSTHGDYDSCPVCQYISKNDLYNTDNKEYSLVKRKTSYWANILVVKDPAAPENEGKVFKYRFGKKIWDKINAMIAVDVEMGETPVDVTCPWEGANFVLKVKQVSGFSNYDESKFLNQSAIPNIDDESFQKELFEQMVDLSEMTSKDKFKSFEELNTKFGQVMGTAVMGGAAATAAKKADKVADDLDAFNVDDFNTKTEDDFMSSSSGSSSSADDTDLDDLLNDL
T3 sequence 2: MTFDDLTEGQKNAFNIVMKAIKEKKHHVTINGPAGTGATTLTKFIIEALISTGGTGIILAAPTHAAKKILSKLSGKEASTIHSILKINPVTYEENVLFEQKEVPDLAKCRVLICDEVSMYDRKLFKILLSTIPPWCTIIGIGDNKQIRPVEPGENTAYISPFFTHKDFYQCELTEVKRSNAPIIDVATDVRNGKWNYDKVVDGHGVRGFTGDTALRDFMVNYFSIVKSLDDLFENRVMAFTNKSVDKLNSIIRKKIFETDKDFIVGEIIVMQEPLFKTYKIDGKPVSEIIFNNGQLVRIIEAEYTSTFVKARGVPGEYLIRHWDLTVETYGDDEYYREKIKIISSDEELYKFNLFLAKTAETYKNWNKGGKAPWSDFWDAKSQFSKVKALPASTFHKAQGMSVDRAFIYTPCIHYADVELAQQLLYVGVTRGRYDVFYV

gp32 His-tagged;Dda-K38A [3] = target: T3, gp32 His-tagged;Dda-K38A; assay: crystal structure; Zn2+; 6 A crystals, Zn SAD; EMSA: 25 mM HEPES pH 7.5, 5 mM MgCl2, 0.1 mM EDTA, 2 mM 2-mercaptoethanol, 1 mg/ml BSA, 5% glycerol, 10 or 150 mM NaCl, room temperature (gel 4 C); gel filtration: 20 mM Tris-HCl pH 7.0, 200 mM NaCl (50 mM for crystallization), 0.5 mM EDTA, 5 mM 2-mercaptoethanol; settings: protein: recombinant;recombinant; tags: N-terminal 6xHis;6xHis (stated for SPR); copies: 1;1; single strand
[4] = target: T4, gp32 non-His-tagged;Dda-K38A (bacteriophage T4;bacteriophage T4, UniProt P03695;P32270 1-301;1-439, |K38A); assay: crystal structure; Zn2+; 4.98 A; 11 nt visible in one complex, 9 nt (Dda only) in the other; EMSA: 25 mM HEPES pH 7.5, 5 mM MgCl2, 0.1 mM EDTA, 2 mM 2-mercaptoethanol, 1 mg/ml BSA, 5% glycerol, 10 or 150 mM NaCl, room temperature (gel 4 C); gel filtration: 20 mM Tris-HCl pH 7.0, 200 mM NaCl (50 mM for crystallization), 0.5 mM EDTA, 5 mM 2-mercaptoethanol; settings: protein: recombinant;recombinant; tags: none;6xHis (stated for SPR); copies: 1;1; single strand
T4 sequence 1: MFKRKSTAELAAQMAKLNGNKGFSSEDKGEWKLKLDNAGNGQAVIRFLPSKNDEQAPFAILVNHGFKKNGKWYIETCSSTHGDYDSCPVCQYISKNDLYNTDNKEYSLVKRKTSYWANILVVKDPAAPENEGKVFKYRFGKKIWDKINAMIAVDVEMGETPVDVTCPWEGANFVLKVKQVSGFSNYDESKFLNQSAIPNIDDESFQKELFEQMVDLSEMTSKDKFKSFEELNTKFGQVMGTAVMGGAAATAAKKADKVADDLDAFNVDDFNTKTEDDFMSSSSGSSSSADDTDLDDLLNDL
T4 sequence 2: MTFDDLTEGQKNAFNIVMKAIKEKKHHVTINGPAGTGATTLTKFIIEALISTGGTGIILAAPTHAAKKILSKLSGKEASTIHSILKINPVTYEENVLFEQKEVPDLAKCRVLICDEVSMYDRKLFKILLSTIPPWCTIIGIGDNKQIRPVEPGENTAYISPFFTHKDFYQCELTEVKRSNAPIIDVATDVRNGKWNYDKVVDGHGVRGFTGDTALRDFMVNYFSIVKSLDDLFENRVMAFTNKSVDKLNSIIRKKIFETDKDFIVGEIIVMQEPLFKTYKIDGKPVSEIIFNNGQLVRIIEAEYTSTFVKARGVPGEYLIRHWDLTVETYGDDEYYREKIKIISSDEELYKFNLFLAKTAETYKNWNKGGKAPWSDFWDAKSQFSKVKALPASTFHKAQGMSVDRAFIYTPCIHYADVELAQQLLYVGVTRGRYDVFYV

gp32 His-tagged;Dda-K38A [5] = target: T3, gp32 His-tagged;Dda-K38A; assay: gel filtration; 50 mM NaCl; purified complex crystallized; EMSA: 25 mM HEPES pH 7.5, 5 mM MgCl2, 0.1 mM EDTA, 2 mM 2-mercaptoethanol, 1 mg/ml BSA, 5% glycerol, 10 or 150 mM NaCl, room temperature (gel 4 C); gel filtration: 20 mM Tris-HCl pH 7.0, 200 mM NaCl (50 mM for crystallization), 0.5 mM EDTA, 5 mM 2-mercaptoethanol; settings: protein: recombinant;recombinant; tags: N-terminal 6xHis;6xHis (stated for SPR); copies: 1;1; single strand
wild-type Dda = assay: Dda-dependent DNA unwinding assay with gp32 variants (fluorescein-quenched replication fork substrate, no annealing trap); type: biochemical, bacteriophage T4; settings: 375 nM gp32 variant, 25 nM wild-type Dda, 25 nM substrate, 2.5 mM ATP, triplicate experiments
Experimental: A partial duplex substrate mimicking a replication fork was prepared by mixing equimolar concentrations of the following oligonucleotides: loading strand - […]/36-FAM/, displaced strand - […], and leading strand - […] in 10 mM HEPES/1 mM EDTA. The sample was heated to 95°C for 5 min, followed by slowly cooling to room temperature. All concentrations are final, after mixing. ATP (2.5 mM), Mg(OAc)2 (5 mM) and gp32 (375 nM) in assay buffer (25 mM HEPES, pH 7.5, 10 mM KOAc, 0.1 mM EDTA, 2 mM β-mercaptoethanol, 1 mg/ml bovine serum albumin and 4 mM phosphoenol pyruvate) were mixed and added to wells in one row of a black 96-well plate. The reactions were initiated by adding 25 nM substrate, 25 nM wild-type Dda and 5 U/ml pyruvate kinase/lactate dehydrogenase in assay buffer with a multichannel pipette to the entire row simultaneously. Fluorescein fluorescence was measured 8 times per minute in a VICTOR Nivo Multimode Plate Reader (Perkin Elmer) at room temperature with excitation through a 480/30 nm bandpass filter and emission measured after a 530/30 nm bandpass filter.

[6] = system: Dda binding to ssDNA (5′F-T30); assay: Electrophoretic mobility shift assay of Dda binding to 5′F-T30 ssDNA with or without gp32; design: species or system bacteriophage T4; settings: EMSA, 5 nM 5′F-T30, 100 nM gp32, 10 mM or 150 mM NaCl, 10 min room temperature; three independent sets, Hill fit
Experimental: Varying amounts of Dda were mixed with 5 nM 5′F-T30 with or without 100 nM gp32 in 25 mM HEPES, pH 7.5, 5 mM MgCl2, 0.1 mM EDTA, 2 mM β-mercaptoethanol, 1 mg/ml bovine serum albumin, 5% glycerol, 0.05% Orange G and either 10 mM NaCl or 150 mM NaCl. Samples were incubated at room temperature in the dark for 10 min before separating on a 6% 100:1 acrylamide:bisacrylamide gel at 4°C. Gels were imaged on an Amersham Typhoon RGB Imager (Cytiva) with excitation using a 488 nm laser and emission measured after a 525BP20 filter. Data were quantified using ImageQuant software (GE Healthcare) and fit to the Hill equation.
Figure S6. gp32 enhances the affinity of Dda for ssDNA. (A) Electrophoretic mobility shift assays (EMSAs) of 5 nM 5′-F-T30 with increasing concentrations of Dda at 10 mM NaCl and 150 mM NaCl. (B) EMSAs of 5 nM 5′-F-T30 with 100 nM gp32 and increasing concentrations of Dda at 10 mM NaCl and 150 mM NaCl. ( C) The fraction of Dda bound DNA from three independent sets of EMSAs is plotted (average and standard deviation) and fit to the Hill equation. (D) The average and standard deviation of the apparent K d for each condition are given.
(1 picture or pasted object on this page, not shown here)

gp32 His-tagged;Dda-K38A [7] = target: T3, gp32 His-tagged;Dda-K38A; assay: gel filtration, SDS-PAGE and agarose gel; 200 mM NaCl; EMSA: 25 mM HEPES pH 7.5, 5 mM MgCl2, 0.1 mM EDTA, 2 mM 2-mercaptoethanol, 1 mg/ml BSA, 5% glycerol, 10 or 150 mM NaCl, room temperature (gel 4 C); gel filtration: 20 mM Tris-HCl pH 7.0, 200 mM NaCl (50 mM for crystallization), 0.5 mM EDTA, 5 mM 2-mercaptoethanol; settings: protein: recombinant;recombinant; tags: N-terminal 6xHis;6xHis (stated for SPR); copies: 1;1; single strand

“240–253: synthetic peptide of gp32 C-terminus residues 240–253 (GTAVMGGAAATAAK)” was tested, and the “Binding to Dda-K38A/dT20 (in words)” value (Dda-K38A/dT20) was “failed to bind; also recorded: showed no binding”.

TTTTTTTT (ssDNA) [dT8]: binds [1].

TTTTTTTTTTTTTTTT (ssDNA) [dT16]: binds (gp32 His-tagged;Dda-K38A [2]).

TTTTTTTTTTTTTTTTT (ssDNA) [dT17]: binds (gp32 His-tagged;Dda-K38A [3]); binds [4].

TTTTTTTTTTTTTTTTTT (ssDNA) [dT18]: binds (gp32 His-tagged;Dda-K38A [5]).

B1: wild-type gp32: bacteriophage T4 single-stranded DNA-binding protein, full length, N-terminal 6xHis-tag (protein)
chain: MFKRKSTAELAAQMAKLNGNKGFSSEDKGEWKLKLDNAGNGQAVIRFLPSKNDEQAPFAILVNHGFKKNGKWYIETCSSTHGDYDSCPVCQYISKNDLYNTDNKEYSLVKRKTSYWANILVVKDPAAPENEGKVFKYRFGKKIWDKINAMIAVDVEMGETPVDVTCPWEGANFVLKVKQVSGFSNYDESKFLNQSAIPNIDDESFQKELFEQMVDLSEMTSKDKFKSFEELNTKFGQVMGTAVMGGAAATAAKKADKVADDLDAFNVDDFNTKTEDDFMSSSSGSSSSADDTDLDDLLNDL
modifications: left off: 6xHis, N-terminal, kept
With B1 the “Rate constant of product formation (single exponential fit)” value (wild-type Dda; 5 mM Mg(OAc)2, pH 7.5, room temperature, fluorescein fluorescence) was 0.023 s⁻¹, the “Amplitude of the product formation curve (fluorescence)” value (wild-type Dda; higher amplitude = more effective prevention of reannealing) was 280 000 and the “Effect of gp32 on Dda binding to ssDNA (in words)” value [6] was “increases the affinity of Dda for the ssDNA; also recorded: reduces the fraction of ssDNA bound by Dda”.

TTTTTTTTTTTTTTTTTTTT (ssDNA) [dT20]: binds (gp32 His-tagged;Dda-K38A [7]).
